Measurements: patent US20190241648A1 (STATEN BIOTECHNOLOGY B V, published 2019)
Ends that are not written are not given here.

Key:
Test in all cases: cyclic peptide substitution array
ApoC3 peptide D66P = target: T1, ApoC3 peptide D66P (human, not fully specified; cyclic (thioether))
T1 peptide: DKFSEFWPLDPEV
How it was run: (§1)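 Peptide microarrays incubated with antibody samples, then stained with goat anti-human IgG (Fc) DyLight680 and anti-HA DyLight800 control antibodies, scanned at intensity 7/7 (red/green). Secondary-only pre-stain checked background binding; framing HA peptides served as quality control; substitution effects read as changes in spot intensity.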

ApoC3 peptide E63Y = target: T2, ApoC3 peptide E63Y (human, cyclic (thioether))
T2 peptide: DKFSYFWDLDPEV
How it was run: as §1

ApoC3 peptide F61K = target: T3, ApoC3 peptide F61K (human, cyclic (thioether))
T3 peptide: DKKSEFWDLDPEV
How it was run: as §1

ApoC3 peptide S62E = target: T4, ApoC3 peptide S62E (human, not fully specified; cyclic (thioether))
T4 peptide: DKFEEFWDLDPEV
How it was run: as §1

ApoC3 peptide E70D = target: T5, ApoC3 peptide E70D (human, cyclic (thioether))
T5 peptide: DKFSEFWDLDPDV
How it was run: as §1

ApoC3 peptide K60T = target: T6, ApoC3 peptide K60T (human, cyclic (thioether))
T6 peptide: DTFSEFWDLDPEV
How it was run: as §1

ApoC3 peptide V71N = target: T7, ApoC3 peptide V71N (human, thioether (positions not given here); also: cyclic (thioether), ring places not given here)
T7 peptide: DKFSEFWDLDPEN
How it was run: as §1

ApoC3 peptide F61D = target: T8, ApoC3 peptide F61D (human, cyclic (thioether))
T8 peptide: DKDSEFWDLDPEV
How it was run: as §1

ApoC3 peptide E70N = target: T9, ApoC3 peptide E70N (human, cyclic (thioether))
T9 peptide: DKFSEFWDLDPNV
How it was run: as §1

ApoC3 peptide D59N = target: T10, ApoC3 peptide D59N (human, thioether (positions not given here); not fully specified (C-terminus, bridges); also: cyclised via thioether between a C-terminal Cys and a modified N-terminus, the Cys and the N-terminal …)
T10 peptide: NKFSEFWDLDPEV
How it was run: as §1

ApoC3 peptide D66M = target: T11, ApoC3 peptide D66M (human, not fully specified; cyclic (thioether))
T11 peptide: DKFSEFWMLDPEV
How it was run: as §1

ApoC3 peptide E63L = target: T12, ApoC3 peptide E63L (human, cyclic (thioether))
T12 peptide: DKFSLFWDLDPEV
How it was run: as §1

ApoC3 peptide V71S = target: T13, ApoC3 peptide V71S (human, not fully specified; cyclic (thioether))
T13 peptide: DKFSEFWDLDPES
How it was run: as §1

ApoC3 peptide K60I = target: T14, ApoC3 peptide K60I (human, cyclic (thioether))
T14 peptide: DIFSEFWDLDPEV
How it was run: as §1

ApoC3 peptide K60H = target: T15, ApoC3 peptide K60H (human, cyclic (thioether))
T15 peptide: DHFSEFWDLDPEV
How it was run: as §1

ApoC3 peptide E63S = target: T16, ApoC3 peptide E63S (human, cyclic (thioether))
T16 peptide: DKFSSFWDLDPEV
How it was run: as §1

ApoC3 peptide K60Q = target: T17, ApoC3 peptide K60Q (human, cyclic (thioether))
T17 peptide: DQFSEFWDLDPEV
How it was run: as §1

ApoC3 peptide F64A = target: T18, ApoC3 peptide F64A (human, cyclic (thioether))
T18 peptide: DKFSEAWDLDPEV
How it was run: as §1

ApoC3 peptide E63N = target: T19, ApoC3 peptide E63N (human, cyclic (thioether))
T19 peptide: DKFSNFWDLDPEV
How it was run: as §1

ApoC3 peptide E63K = target: T20, ApoC3 peptide E63K (human, cyclic (thioether))
T20 peptide: DKFSKFWDLDPEV
How it was run: as §1

ApoC3 peptide S62H = target: T21, ApoC3 peptide S62H (human, thioether (positions not given here); also: cyclic (thioether), ring places not given here)
T21 peptide: DKFHEFWDLDPEV
How it was run: as §1

ApoC3 peptide D59H = target: T22, ApoC3 peptide D59H (human, thioether (positions not given here); not fully specified (C-terminus, bridges))
T22 peptide: HKFSEFWDLDPEV
How it was run: as §1

ApoC3 peptide F61P = target: T23, ApoC3 peptide F61P (human, cyclic (thioether))
T23 peptide: DKPSEFWDLDPEV
How it was run: as §1

ApoC3 peptide E70M = target: T24, ApoC3 peptide E70M (human, cyclic (thioether))
T24 peptide: DKFSEFWDLDPMV
How it was run: as §1

ApoC3 peptide F64K = target: T25, ApoC3 peptide F64K (human, thioether (positions not given here); not fully specified (bridges); also: cyclic (thioether), positions not given here)
T25 peptide: DKFSEKWDLDPEV
How it was run: as §1

ApoC3 peptide S62R = target: T26, ApoC3 peptide S62R (human, thioether (positions not given here); also: cyclic (thioether), ring places not given here)
T26 peptide: DKFREFWDLDPEV
How it was run: as §1

ApoC3 peptide L67S = target: T27, ApoC3 peptide L67S (human, thioether (positions not given here); not fully specified (bridges); also: thioether between a C-terminal Cys side chain and a modified N-terminus, the Cys is not in the chain)
T27 peptide: DKFSEFWDSDPEV
How it was run: as §1

ApoC3 peptide W65D = target: T28, ApoC3 peptide W65D (human, not fully specified; cyclic (thioether))
T28 peptide: DKFSEFDDLDPEV
How it was run: as §1

ApoC3 peptide D68H = target: T29, ApoC3 peptide D68H (human, cyclic (thioether))
T29 peptide: DKFSEFWDLHPEV
How it was run: as §1

ApoC3 peptide S62T = target: T30, ApoC3 peptide S62T (human, thioether (positions not given here); also: cyclic (thioether), ring places not given here)
T30 peptide: DKFTEFWDLDPEV
How it was run: as §1

ApoC3 peptide S62Q = target: T31, ApoC3 peptide S62Q (human, thioether (positions not given here); also: cyclic (thioether), ring places not given here)
T31 peptide: DKFQEFWDLDPEV
How it was run: as §1

ApoC3 peptide D66E = target: T32, ApoC3 peptide D66E (human, not fully specified; cyclic (thioether))
T32 peptide: DKFSEFWELDPEV
How it was run: as §1

B1: Llama antibody 5E5 (antibody, V domains shown)
VH: QLQLVESGGGLVQPGGSLRLSCAASGFTFGTYSMRWVRQVPRKALEWVSSISTDGGGTAYRDSVKGRFTISRDNAKNTLYLQMNNLKPEDTAIYYCVIAGYSDWGQGTQVTVSS
VL: ATMLTQSPGSLSVVPGESASISCKTSQGLVHSDGKTYFYWFLQKPGQSPQQLIYQVSNRASGVPDRFTGSGSGTDFTLKISGVKAEDAGVYYCAQGTYYPHTFGSGTRLEIK
notes: detected with goat anti-human IgG (Fc); also called mAb 5E5
In the case of B1, the “% of binding to wild-type peptide” value (ApoC3 peptide D66P) is reported as 0%, the “% of binding to wild-type peptide” value (ApoC3 peptide E63Y) is reported as 90.9% and the “% of binding to wild-type peptide” value (ApoC3 peptide F61K) is reported as 13.5%. The “% of binding to wild-type peptide” value (ApoC3 peptide S62E) was 0%, the “% of binding to wild-type peptide” value (ApoC3 peptide E70D) was 82.9% and the “% of binding to wild-type peptide” value (ApoC3 peptide K60T) was 177%. For the same binder, the “% of binding to wild-type peptide” value (ApoC3 peptide V71N) was 86.6%, the “% of binding to wild-type peptide” value (ApoC3 peptide F61D) was 16% and the “% of binding to wild-type peptide” value (ApoC3 peptide E70N) was 49.6%. For the same binder, the “% of binding to wild-type peptide” value (ApoC3 peptide D59N) was 52.5%, the “% of binding to wild-type peptide” value (ApoC3 peptide D66M) was 0% and the “% of binding to wild-type peptide” value (ApoC3 peptide E63L) was 10.1%. For the same binder, the “% of binding to wild-type peptide” value (ApoC3 peptide V71S) was 74.1%, the “% of binding to wild-type peptide” value (ApoC3 peptide K60I) was 106% and the “% of binding to wild-type peptide” value (ApoC3 peptide K60H) was 116%. For the same binder, the “% of binding to wild-type peptide” value (ApoC3 peptide E63S) was 47.9%, the “% of binding to wild-type peptide” value (ApoC3 peptide K60Q) was 178% and the “% of binding to wild-type peptide” value (ApoC3 peptide F64A) was 220%. For the same binder, the “% of binding to wild-type peptide” value (ApoC3 peptide E63N) was 31.3%, the “% of binding to wild-type peptide” value (ApoC3 peptide E63K) was 19.1% and the “% of binding to wild-type peptide” value (ApoC3 peptide S62H) was 2.89%. For the same binder, the “% of binding to wild-type peptide” value (ApoC3 peptide D59H) was 52.8%, the “% of binding to wild-type peptide” value (ApoC3 peptide F61P) was 52.7% and the “% of binding to wild-type peptide” value (ApoC3 peptide E70M) was 74%. The “% of binding to wild-type peptide” value (ApoC3 peptide F64K) was 114%, the “% of binding to wild-type peptide” value (ApoC3 peptide S62R) was 1.45% and the “% of binding to wild-type peptide” value (ApoC3 peptide L67S) was 36.5%. For the same binder, the “% of binding to wild-type peptide” value (ApoC3 peptide W65D) was 0%, the “% of binding to wild-type peptide” value (ApoC3 peptide D68H) was 0% and the “% of binding to wild-type peptide” value (ApoC3 peptide S62T) was 215%. The “% of binding to wild-type peptide” value (ApoC3 peptide S62Q) was 1.13% and the “% of binding to wild-type peptide” value (ApoC3 peptide D66E) was 2.16%.
